Experimental data: PMC9696605 (Viruses, 2022)
Where no end group is shown, it is not given here. [ ]: non-standard residue; d: D form. pT = C[C@@H](OP(=O)(O)O)[C@H](N)C(=O)O

B1: U24-6B(1-15), 15-residue peptide of the N-terminal region of U24 from HHV-6B (peptide)
peptide: MDRPRTPPPSYSEVL
notes: source: synthetic peptide (Fmoc solid phase, C18 HPLC purified)
B2: pU24-6A(1-15), U24-6A peptide with phospho-threonine 6 (peptide)
peptide: MDPPR[pT]PPPSYSEVL
notes: source: synthetic peptide, bought: Genscript
B3: U24-6A(1-15), 15-residue peptide of the N-terminal region of U24 from HHV-6A (peptide)
peptide: MDPPRTPPPSYSEVL
notes: as for B1
B4: pU24-6B(1-15), U24-6B peptide with phospho-threonine 6 (peptide)
peptide: MDRPR[pT]PPPSYSEVL
notes: as for B2

What was measured:
[1] = biological target: human neural precursor cell expressed developmentally down-regulated protein 4-like WW3* domain (hNedd4L-WW3*) (human, UniProt Q96PU5 497-530); test: ITC; conditions: both partners purified
[2] = biological target: T1, SH3 domain of human Fyn (Fyn-SH3), 15N-labelled (human, UniProt P06241 82-142); test: NMR titration; conditions: both partners purified
T1 construct: also called 15N-Fyn-SH3
T1 sequence (P06241 82-142): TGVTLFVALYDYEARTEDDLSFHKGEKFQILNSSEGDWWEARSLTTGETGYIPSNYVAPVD

Chain of human neural precursor cell expressed developmentally down-regulated protein 4-like WW3* domain (hNedd4L-WW3*) (Q96PU5 497-530): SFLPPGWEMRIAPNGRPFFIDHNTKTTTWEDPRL

| Binder | Kd [1] | Kd [2] |
| --- | --- | --- |
| B1 | 8.9 µM | 500 ± 200 µM |
| B2 |  | ≥ 12000 µM |
| B3 | 8.5 µM |  |
| B4 |  | ≥ 5000 µM |
